{"source": "patent US20130115635A1", "about": "(VIB VZW, published 2013)", "key": {"β-synuclein": {"target": "T1, β-synuclein (UniProt Q16143 1-134)", "T1 construct": "also called beta-synuclein", "T1 sequence (Q16143 whole entry)": "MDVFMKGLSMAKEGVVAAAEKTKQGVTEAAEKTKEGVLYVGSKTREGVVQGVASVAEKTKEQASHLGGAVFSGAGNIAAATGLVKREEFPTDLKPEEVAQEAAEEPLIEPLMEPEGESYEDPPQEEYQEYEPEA", "assay": "phage display panning on immobilised antigen"}, "α-synuclein [1]": {"target": "T2, α-synuclein (UniProt P37840 1-140)", "assay": "15N-1H HSQC NMR titration"}, "Nb458-gaaEPEA (CA2945) [2]": {"target": "T3, Nb458-gaaEPEA (CA2945)", "T3 construct": "also called Nb458 tagged with the gaaEPEA tag", "T3 sequence (VHH, as listed by the source)": "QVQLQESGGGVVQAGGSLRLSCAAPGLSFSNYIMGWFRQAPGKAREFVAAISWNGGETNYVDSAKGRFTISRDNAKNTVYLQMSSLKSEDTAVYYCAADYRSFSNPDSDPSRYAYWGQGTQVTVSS", "assay": "ELISA: Nb458-gaaEPEA coated at 0.1 or 0.01 µg/well, detected with biNbSyn2 alkaline phosphatase conjugate at dilutions 1/250 to 1/4000, OD405 after 60 minutes"}, "α-synuclein [3]": {"target": "T2, α-synuclein", "assay": "ITC, 303.1 K"}, "α-synuclein [4]": {"target": "T2, α-synuclein", "assay": "ITC, 293.1 K"}, "α-synuclein [5]": {"target": "T2, α-synuclein", "assay": "ITC, 310.1 K"}, "α-synuclein [6]": {"target": "T2, α-synuclein", "assay": "ITC, 298.1 K"}, "Nb458-gaaEPEA (CA2945) [7]": {"target": "T3, Nb458-gaaEPEA (CA2945)", "assay": "affinity capture on NbSyn2 sepharose, elution with 1 M NaCl, SDS-PAGE"}, "Nb458-… (CA2944)": {"target": "Nb458-… (CA2944)", "assay": "affinity capture on NbSyn2 sepharose, elution with 1 M NaCl, SDS-PAGE"}, "α-synuclein [8]": {"target": "T2, α-synuclein", "assay": "phage display panning on immobilised antigen"}, "Rev-[…]": {"target": "T4, Rev-[…] (HIV)", "T4 construct": "also called HIV-Rev-EPEA", "assay": "colocalisation in double-transfected HeLa cells, confocal microscopy"}}, "data": [{"binder": "Nb86 (VHH) VHH: QVQLQESGGGSVQAGGSLRLSCALSGYTFRGNRMAWFRQAPGKEREGVARINTGGVNTYVADSVKGRFTISQDNAKNTVYLQMNNLQPEDTAMYFCAADLTGWRPVGFSGYNYWGQGTQVTVSS", "values": [{"measurement": "binding result", "setting": "β-synuclein", "value": "binds"}]}, {"binder": "Nb87 (VHH) VHH: QVQLQESGGGSVQTGGSLRLSCVASGYSGYMAWFRQAPGKEREGIAAIYRGDKITYYAHSVQGRFTISQANAKNTVYLLMNSLKPEDTAIYYCAARRVVADSPLLSKTYAYWGQGTQVTVSS", "values": [{"measurement": "binding result", "setting": "α-synuclein [1]", "value": "binds"}, {"measurement": "binding result", "setting": "β-synuclein", "value": "binds"}]}, {"binder": "biNbSyn2 alkaline phosphatase conjugate (VHH, also called biNbSyn2-AP; bivalent NbSyn2) QVQLVESGGGSVQAGGSLRLSCAASGIDSSSYCMGWFRQRPGKEREGVARINGLGGVKTAYADSVKDRFTISRDNAENTVYLQMNSLKPEDTAIYYCAAKFSPGYCGGSWSNFGYWGQGTQVTVSSGGGGSGGGSQVQLQESGGGSVQAGGSLRLSCAASGIDSSSYCMGWFRQRPGKEREGVARINGLGGVKTAYADSVKDRFTISRDNAENTVYLQMNSLKPEDTAIYYCAAKFSPGYCGGSWSNFGYWGQGTQVTVSSHHHHHH", "values": [{"measurement": "binding result", "setting": "Nb458-gaaEPEA (CA2945) [2]", "value": "binds"}]}, {"binder": "NbSyn2 (VHH, also called His-tagged NbSyn2; NbSyn2-His6tagged) VHH: QGQLVESGGGSVQAGGSLRLSCAASGIDSSSYCMGWFRQRPGKEREGVARINGLGGVKTAYADSVKDRFTISRDNAENTVYLQMNSLKPEDTAIYYCAAKFSPGYCGGSWSNFGYWGQGTQVTVSS", "values": [{"measurement": "Kd", "setting": "α-synuclein [3]", "value": 99, "unit": "nM"}, {"measurement": "Stoichiometry", "setting": "α-synuclein [3]", "value": 0.87}, {"measurement": "Stoichiometry", "setting": "α-synuclein [4]", "value": 0.99}, {"measurement": "Kd", "setting": "α-synuclein [5]", "value": 260, "unit": "nM"}, {"measurement": "Stoichiometry", "setting": "α-synuclein [5]", "value": 0.91}, {"measurement": "Stoichiometry", "setting": "α-synuclein [6]", "value": 0.93}, {"measurement": "binding result", "setting": "Nb458-gaaEPEA (CA2945) [7]", "value": "binds"}, {"measurement": "binding result", "setting": "Nb458-… (CA2944)", "value": "binds"}]}, {"binder": "NbSyn1b (VHH) VHH: DVQLVESGGGSVQAGGSLRLSCAPSGLNASSYCMGWFRQSPGKEREGVARINGNAGIKTAYADSVKDRFTLSRDNAKNTVYLQMNSLKAEDSAMYYCAAKSSPGYCGGNWDNFGYWGQGTQVTVSS", "values": [{"measurement": "binding result", "setting": "α-synuclein [8]", "value": "binds"}]}, {"binder": "NbSyn1a-GFP (VHH) VHH: EVQLVESGGGSVQAGGSLSLACAPSGLNASSYCMGWFRQSPGKEREGVARINGNAGIKTAYADSVKDRFTLSRDNAKNTVYLQMNSLKAEDSAIYFCAAKSSPGYCGGNWDNFGYWGQGTQVTVSS", "values": [{"measurement": "binding result", "setting": "Rev-[…]", "value": "binds"}]}, {"binder": "NbSyn1a-mKO1 (VHH, not shown: mKO1, mKusabira orange fluorescent protein) VHH: EVQLVESGGGSVQAGGSLSLACAPSGLNASSYCMGWFRQSPGKEREGVARINGNAGIKTAYADSVKDRFTLSRDNAKNTVYLQMNSLKAEDSAIYFCAAKSSPGYCGGNWDNFGYWGQGTQVTVSS", "values": [{"measurement": "binding result", "setting": "Rev-[…]", "value": "binds"}]}, {"binder": "NbSyn1c (VHH) VHH: QVQLVESGGGSVQAGGSLRLSCAPLGLNASSYCMGWFRQSPGKEREGVARINGNAGIKTAYADSVKDRFTLSRDNAKNTVYLQMNSLKAEDSAMYYCAAKSSPGYCGGNWDNFGYWGQGTQVTVSS", "values": [{"measurement": "binding result", "setting": "α-synuclein [8]", "value": "binds"}]}, {"binder": "NbSyn1a (VHH) VHH: EVQLVESGGGSVQAGGSLSLACAPSGLNASSYCMGWFRQSPGKEREGVARINGNAGIKTAYADSVKDRFTLSRDNAKNTVYLQMNSLKAEDSAIYFCAAKSSPGYCGGNWDNFGYWGQGTQVTVSS", "values": [{"measurement": "binding result", "setting": "α-synuclein [8]", "value": "binds"}]}, {"binder": "Nb85 (VHH, also called NbSyn85) VHH: QVQLQESGGGSVQAGGSLRLSCAASGLTYSNYCMGWFRQAPGKAREVVARISTRGIKTYYADSVNGRFTISRDNAKNMVYLQMNSLKPEDTAIYYCAAVIYPGYGDSCPWTTSVNYWGQGTQVTVSS", "values": [{"measurement": "binding result", "setting": "β-synuclein", "value": "binds"}]}]}
